# In PMC12893000, “Structural basis of quinone sensing by the MarR-type repressor MhqR in Staphylococcus aureus” (mBio, 2025):
# Substitutions are numbered along the chain they refer to.
# Legend:
# [1] = system: T1, SaMhqR Q54A Q54A (Staphylococcus aureus COL), ORF:0a4449b0; experiment: EMSA; settings: EMSA: 15 ng probe, 0.01-1.0 uM protein, 60 min; for MHQ tests protein diluted to 0.6 uM in 10 mM Tris-HCl pH 7.5 and treated with 0.5-100 mM MHQ for 30 min at …
# T1 sequence: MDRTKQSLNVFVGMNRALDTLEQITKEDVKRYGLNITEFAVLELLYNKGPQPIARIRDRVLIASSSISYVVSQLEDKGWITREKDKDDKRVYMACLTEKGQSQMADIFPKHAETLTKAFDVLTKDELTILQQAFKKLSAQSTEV
# [2] = system: T2, SaMhqR Q73A Q73A (Staphylococcus aureus COL), ORF:0a4449b0; experiment: EMSA; settings: EMSA: 15 ng probe, 0.01-1.0 uM protein, 60 min; for MHQ tests protein diluted to 0.6 uM in 10 mM Tris-HCl pH 7.5 and treated with 0.5-100 mM MHQ for 30 min at …
# T2 sequence: T1 sequence with A54Q, Q73A
# [3] = system: T3, SaMhqR S68A S68A (Staphylococcus aureus COL), ORF:0a4449b0; experiment: EMSA; settings: EMSA: 15 ng probe, 0.01-1.0 uM protein, 60 min; for MHQ tests protein diluted to 0.6 uM in 10 mM Tris-HCl pH 7.5 and treated with 0.5-100 mM MHQ for 30 min at …
# T3 sequence: T1 sequence with A54Q, S68A
# [4] = system: T4, SaMhqR H111A H111A (Staphylococcus aureus COL), ORF:0a4449b0; experiment: EMSA; settings: EMSA: 15 ng probe, 0.01-1.0 uM protein, 60 min; for MHQ tests protein diluted to 0.6 uM in 10 mM Tris-HCl pH 7.5 and treated with 0.5-100 mM MHQ for 30 min at …
# T4 sequence: T1 sequence with A54Q, H111A
# [5] = system: T5, SaMhqR F39A F39A (Staphylococcus aureus COL), ORF:0a4449b0; experiment: EMSA; settings: EMSA: 15 ng probe, 0.01-1.0 uM protein, 60 min; for MHQ tests protein diluted to 0.6 uM in 10 mM Tris-HCl pH 7.5 and treated with 0.5-100 mM MHQ for 30 min at …
# T5 sequence: T1 sequence with F39A, A54Q
# [6] = system: T6, SaMhqR E38A E38A (Staphylococcus aureus COL), ORF:0a4449b0; experiment: EMSA; settings: EMSA: 15 ng probe, 0.01-1.0 uM protein, 60 min; for MHQ tests protein diluted to 0.6 uM in 10 mM Tris-HCl pH 7.5 and treated with 0.5-100 mM MHQ for 30 min at …
# T6 sequence: T1 sequence with E38A, A54Q
# [7] = system: T7, SaMhqR R90A R90A (Staphylococcus aureus COL), ORF:0a4449b0; experiment: EMSA; settings: EMSA: 15 ng probe, 0.01-1.0 uM protein, 60 min; for MHQ tests protein diluted to 0.6 uM in 10 mM Tris-HCl pH 7.5 and treated with 0.5-100 mM MHQ for 30 min at …
# T7 sequence: T1 sequence with A54Q, R90A
# [8] = system: T8, SaMhqR V91A V91A (Staphylococcus aureus COL), ORF:0a4449b0; experiment: EMSA; settings: EMSA: 15 ng probe, 0.01-1.0 uM protein, 60 min; for MHQ tests protein diluted to 0.6 uM in 10 mM Tris-HCl pH 7.5 and treated with 0.5-100 mM MHQ for 30 min at …
# T8 sequence: T1 sequence with A54Q, V91A
# [9] = system: T9, SaMhqR A63E A63E (Staphylococcus aureus COL), ORF:0a4449b0; experiment: EMSA; settings: EMSA: 15 ng probe, 0.01-1.0 uM protein, 60 min; for MHQ tests protein diluted to 0.6 uM in 10 mM Tris-HCl pH 7.5 and treated with 0.5-100 mM MHQ for 30 min at …
# T9 sequence: T1 sequence with A54Q, A63E
# [10] = system: T10, SaMhqR E43A E43A (Staphylococcus aureus COL), ORF:0a4449b0; experiment: EMSA; settings: EMSA: 15 ng probe, 0.01-1.0 uM protein, 60 min; for MHQ tests protein diluted to 0.6 uM in 10 mM Tris-HCl pH 7.5 and treated with 0.5-100 mM MHQ for 30 min at …
# T10 sequence: T1 sequence with E43A, A54Q
# [11] = system: T11, SaMhqR K89A K89A (Staphylococcus aureus COL), ORF:0a4449b0; experiment: EMSA; settings: EMSA: 15 ng probe, 0.01-1.0 uM protein, 60 min; for MHQ tests protein diluted to 0.6 uM in 10 mM Tris-HCl pH 7.5 and treated with 0.5-100 mM MHQ for 30 min at …
# T11 sequence: T1 sequence with A54Q, K89A
# [12] = system: T12, SaMhqR Y92A Y92A (Staphylococcus aureus COL), ORF:0a4449b0; experiment: EMSA; settings: EMSA: 15 ng probe, 0.01-1.0 uM protein, 60 min; for MHQ tests protein diluted to 0.6 uM in 10 mM Tris-HCl pH 7.5 and treated with 0.5-100 mM MHQ for 30 min at …
# T12 sequence: T1 sequence with A54Q, Y92A
# [13] = system: T13, SaMhqR S65A S65A (Staphylococcus aureus COL), ORF:0a4449b0; experiment: EMSA; settings: EMSA: 15 ng probe, 0.01-1.0 uM protein, 60 min; for MHQ tests protein diluted to 0.6 uM in 10 mM Tris-HCl pH 7.5 and treated with 0.5-100 mM MHQ for 30 min at …
# T13 sequence: T1 sequence with A54Q, S65A
# [14] = system: T14, SaMhqR F11A F11A (Staphylococcus aureus COL), ORF:0a4449b0; experiment: EMSA; settings: EMSA: 15 ng probe, 0.01-1.0 uM protein, 60 min; for MHQ tests protein diluted to 0.6 uM in 10 mM Tris-HCl pH 7.5 and treated with 0.5-100 mM MHQ for 30 min at …
# T14 sequence: T1 sequence with F11A, A54Q
# [15] = system: T15, SaMhqR E43A,H111A E43A;H111A (Staphylococcus aureus COL), ORF:0a4449b0; experiment: EMSA; settings: EMSA: 15 ng probe, 0.01-1.0 uM protein, 60 min; for MHQ tests protein diluted to 0.6 uM in 10 mM Tris-HCl pH 7.5 and treated with 0.5-100 mM MHQ for 30 min at …
# T15 sequence: T1 sequence with E43A, A54Q, H111A
# [16] = system: T16, SaMhqR S64A S64A (Staphylococcus aureus COL), ORF:0a4449b0; experiment: EMSA; settings: EMSA: 15 ng probe, 0.01-1.0 uM protein, 60 min; for MHQ tests protein diluted to 0.6 uM in 10 mM Tris-HCl pH 7.5 and treated with 0.5-100 mM MHQ for 30 min at …
# T16 sequence: T1 sequence with A54Q, S64A
# [17] = system: T17, SaMhqR Y69A Y69A (Staphylococcus aureus COL), ORF:0a4449b0; experiment: EMSA; settings: EMSA: 15 ng probe, 0.01-1.0 uM protein, 60 min; for MHQ tests protein diluted to 0.6 uM in 10 mM Tris-HCl pH 7.5 and treated with 0.5-100 mM MHQ for 30 min at …
# T17 sequence: T1 sequence with A54Q, Y69A
# [18] = system: T18, SaMhqR V70A V70A (Staphylococcus aureus COL), ORF:0a4449b0; experiment: EMSA; settings: EMSA: 15 ng probe, 0.01-1.0 uM protein, 60 min; for MHQ tests protein diluted to 0.6 uM in 10 mM Tris-HCl pH 7.5 and treated with 0.5-100 mM MHQ for 30 min at …
# T18 sequence: T1 sequence with A54Q, V70A
# [19] = system: T19, SaMhqR WT (Staphylococcus aureus COL), ORF:0a4449b0; experiment: EMSA; settings: EMSA: 15 ng probe, 0.01-1.0 uM protein, 60 min; for MHQ tests protein diluted to 0.6 uM in 10 mM Tris-HCl pH 7.5 and treated with 0.5-100 mM MHQ for 30 min at …
# T19 sequence: T1 sequence with A54Q
# [20] = system: T20, SaMhqR S66A S66A (Staphylococcus aureus COL), ORF:0a4449b0; experiment: EMSA; settings: EMSA: 15 ng probe, 0.01-1.0 uM protein, 60 min; for MHQ tests protein diluted to 0.6 uM in 10 mM Tris-HCl pH 7.5 and treated with 0.5-100 mM MHQ for 30 min at …
# T20 sequence: T1 sequence with A54Q, S66A
# [21] = system: T21, SaMhqR D88A D88A (Staphylococcus aureus COL), ORF:0a4449b0; experiment: EMSA; settings: EMSA: 15 ng probe, 0.01-1.0 uM protein, 60 min; for MHQ tests protein diluted to 0.6 uM in 10 mM Tris-HCl pH 7.5 and treated with 0.5-100 mM MHQ for 30 min at …
# T21 sequence: T1 sequence with A54Q, D88A
# [22] = target: MarR-type repressor MhqR of Staphylococcus aureus (SaMhqR), wild type, C-terminally His-tagged (Staphylococcus aureus (COL)); experiment: SEC-MALS; Superdex 200 Increase 10/300, HEPES buffer (20 mM HEPES, 20 mM MgCl2, 200 mM NaCl, 20 mM KCl)
substance,measurement,setting,value
ACATATCAACTCCTATCATGATTGATTATAGTATTTCCCTATTCTATTTTAACTTAAACGAAGTCAAAGGTGCATGACAGTCATGTGACGACATTGCCACATCTATGTAGTCGTTTTTATTAAGCACAGTTTGAAATGAAGATGAAAACACGTATCTTGACATTAAATCTATTCAGTTATATAATTTATCTCGAAATCGAAATAAAATAAAAAAGTTGGTGATCATATGGATCGAACG (double strand) [mhqRED promoter probe],binding,[1],binds more weakly
same,binding,[2],binds more weakly
same,binding,[3],binds more weakly
same,binding,[4],binds more weakly
same,binding,[5],binds more weakly
same,binding,[6],binds more weakly
same,binding,[7],binds more weakly
same,binding,[8],binds more weakly
same,binding,[9],binds more weakly
same,binding,[10],binds
same,binding,[11],binds more weakly
same,binding,[12],binds more weakly
same,binding,[13],binds more weakly
same,binding,[14],binds more weakly
same,binding,[15],no binding
same,binding,[16],binds
same,binding,[17],binds more weakly
same,binding,[18],binds more weakly
same,binding,[19],binds
same,binding,[20],binds more weakly
same,binding,[21],binds more weakly
"MarR-type repressor MhqR of Staphylococcus aureus (SaMhqR), wild type, C-terminally His-tagged (natural protein)",stoichiometry N,[22],2
